Measured values as given in the DeepSol protein solubility set.

Assay: soluble on expression in E. coli; label from the status in PepcDB or PDB records

**Q.** Which “soluble on expression in E. coli” value does the source give for “MAKKPTALIILDGFANRESEHGNAVKLANKPNFDRYYNKYPTTQIEASGLDVGLPEGQMGNSEVGHMNIGAGRIVYQSLTRINKSIEDGDFFENDVLNNAIAHVNSHDSALHIFGLLSDGGVHSHYKHLFALLELAKKQGVEKVYVHAFLDGRDVDQKSALKYIEETEAKFNELGIGQFASVSGRYYAMDRDKRWEREEKAYNAIRNFDAPTYATAKEGVEASYNEGLTDEFVVPFIVENQNDGVNDGDAVIFYNFRPDRAAQLSEIFANRAFEGFKVEQVKDLFYATFTKYNDNIDAAIVFEKVDLNNTIGEIAQNNNLTQLRIAETEKYPHVTYFMSGGRNEEFKGERRRLIDSPKVATYDLKPEMSAYEVKDALLEELNKGDLDLIILNFANPDMVGHSGMLEPTIKAIEAVDECLGEVVDKILDMDGYAIITADHGNSDQVLTDDDQPMTTHTTNPVPVIVTKEGVTLRETGRLGDLAPTLLDLLNVEQPEDMTGESLIKH” here?
**A.** not soluble

**Q.** With “MGSDKIHHHHHHMELLECVEHVIKTRRSHRLYLDKPVEREKLEKMIELAMWAPSAMNRQQWFFVVVAGKRLKEMIGIVEKGYEHILPRLQRFFAETPKVIEQTRRFFKSLGNAPAAVFAYYTPTGDDYSDVQSVSAAIQNMLLAAHAMGLGTCWMTGPVHVEEEINKALGVEGKKLVAVITVGYPAKQPPVPPRRDSEKKVVWMLD” as the sequence, how does the “soluble on expression in E. coli” value read?
**A.** not soluble

**Q.** For “MRIRSLEIEHMRAITHLVLKDLPSNGVIVISGENERGKSTIMEAIKLVLGEKHDTNKQSVKAIQPKGHDVGTRICLEADLGPVRFRVSKVFNKKKSCELTIFEPKPANYTGKEANSQLSGLLDAHLDHDLFSALFVEQGDITSMLSAAGISSVTQALGGATDHASNEDNALILTVEKEKDRYFTKSGATKKGGELGIAETAVAEAEQAVLAATQQKETLDRRVESVAGFQRDRDQAQQDLPNARDTLTTREQELKTAELAAQQLENASAQLKIAQDQERILQSDIDAREELRKEQSRLSEALQIRIQEELDLKEKTDSLSEAREKLRSQHEKARADAEKMRQRLEKLKESLRLDTLRTSYQELLTVSKQLEELRTVPEVTGAQLSAAEEANDRAKAAAYVVEAHAATMLINAAQPVTIQIDGEAVALNDTEWTTRITSELTAVIGDVSLTIEPGEQGEQLEQKRAETQETLRAALGDAKDIATLRLQREAWVDAEKELQSLNKRKNEIAMRFGDKADLERDIADAELQVAELDIQESDDLQQLIDDAEKEYLQYQQDADAYQKELGAWDSNDIQVRYATVKARVEAERENLDRCDQKIKAQEEQRPLEVLHSELHNVTAELKRQQDHLAELRETDNLQVAKDLYAGAAARVESLENTIRDCEANLKALQTQIDYAAGAAEQLDVALAQRDVALRVLEAVHHRAQAAMLLYTTLIRHRDIARQKYAAPFTQRLTEFAAPVFGKGVGFELGSDLSVVKRTMKEQTVGVDELSGGAQEQLSIVQRFAVADLASQGGETVPVFIDDALGSTDSNRLEMMATLFSRQGHNQQVFVLTCMPQRYDYVAGKHELRISDLMQ”, which “soluble on expression in E. coli” value is on record?
**A.** not soluble

**Q.** Which “soluble on expression in E. coli” value does the source give for “MDNNPIENFMRTTMENIKGMIDVNTIVGEPIKNTDGSLIIPISKVSFGFASGGSEFKSQEDSQENKKIYPFGGGAGAGVSLKPIAFLVIKDDSVRLLPLNAENTYEKVVDMIPQLIEMCKGFSHKSKKEKCCNDDKKKDSNSTNGNTDNANQNSQQQSLEHHHHHH” here?
**A.** soluble

**Q.** With “MGSDKIHHHHHHMGKVLFVSGIDTDIGKSVATGYYARYLMQLGYSVITQKMVQTGCCDISSDILIHRKIQGVELADEDRKGETCCYLFDYPCSPYLAACLQNTYIDEKTIEKYTALLAQKYDYVLLEGAGGLMVPYAEGKTTLDYITAHNYPLILVTSGRLGSINHTLLSLEVCAHQNINVDTLIYNLYPPTDKLITQDTQQYFKSYLAKRFPTTKFMLMQKIDF” as the sequence, how does the “soluble on expression in E. coli” value read?
**A.** not soluble

**Q.** Which “soluble on expression in E. coli” value does the source give for “MKFTSATGSGQQGSSSGTTNSAGNPDSLKQDKVDKSGDSVTVAETTSGDNLTNYTNLPPNLTPTADPNALSFTNKNNAQRAQLFLRALLGSIPVLVNKSGQDDLEHHHHHH” here?
**A.** not soluble

**Q.** For “MIPVKFKGATFGRLVKLEFEILRLGELKIDDISEFNTKDIKLEIRATSSGIKLIGVWEGDISEVGEAIKRALDESMKLRERLLRKMRNKVERIRKTLTEMGFSEESIGYGDAIRFTKRIGEYEVAIVVSSRDDIVRVEVYGGNKKLLAPELEAFFESVDIEELEIYDVDEDGREERVVINLELPKTDEKPEKRIIEAVKVLENILMA”, which “soluble on expression in E. coli” value is on record?
**A.** soluble

**Q.** For “MGSDKIHHHHHHMEQIIRIGMDTSKHVFQLHGVNAAEEVVLRKKMRRKEMVAFFERAAPTVVALEACGGSHHWARLLEALGHDVKLIPPQYVKPYVKRGKNDAADAEALCEAVSRPTMRFVRVKTTDNQAALMLVGMRDRLVRNRTQLANAIRGYAAEFGLIAATGTSKVRSLLERIATDETLPELARELFGLHGREYDRLEDEIEKVEARLMAWHRTNECSRRLTRIPGVGPIGALMMVMKTPAPETFRSGRHFAAWLGLTPKDHSTAGRVRLGVITRAGDENLRSVLVAGATAVLRHVREDRGKNASPWLLDMLNRKPPKLVAVALANKIARVAWKLMVTGERYNPNAALSAYGQAA”, which “soluble on expression in E. coli” value is on record?
**A.** not soluble

**Q.** For “MKAARQQAIVDLLINHKSLTTEALATRLNVSKETIRRDLSELQTQGKVLRNHGRAKYIHRENQDSGDPFHIRLKSHYAHKADIAREALAWIEEGMTIALDASSTCWYLARQLPDIPIQVFTNSHPICQELGKRERIALISSGGQLERKYGCYVNPSLISQLKSLDIDLFIFSCEGIDSGGDLWDSNAINADFKSILLRRASQSLLLIDKSKFNRSGEARIGHLDDVTHIVSDAPQSLEHHHHHH”, which “soluble on expression in E. coli” value is on record?
**A.** soluble

**Q.** For “MAHHHHHHMLRKTNLFLFAASRALMSGGSSHGPTPYQDKSYPVQPHNLNELQQPPDSWRKSPIMSKLMDQSLPVYDDVVTGVGRLYWQEPARVWHLFEADDTLMLEEHDREEWNDRPYVAVNHLYEPPIGSEERPIRVEGTGNPGDQQIVLCFGNCAPHVPQSNYYMMMKGYSKTKCPMCQQWFYVHNRPWLVMHPDWTDEPAADEGPAYTFAEIEAEFDRDFHEFGVYLNAE”, which “soluble on expression in E. coli” value is on record?
**A.** not soluble

**Q.** For “MFGIFDKGQKIKGTVVLMPKNVLDFNAITSIGKGGVIDTATGILGQGVSLVGGVIDTATSFLGRNISMQLISATQTDGSGNGKVGKEVYLEKHLPTLPTLGARQDAFSIFFEWDASFGIPGAFYIKNFMTDEFFLVSVKLEDIPNHGTIEFVCNSWVYNFRSYKKNRIFFVNDTYLPSATPAPLLKYRKEEFEVLRGDGTGKRKDFDRIYDYDVYNDLGNPDGGDPRPILGGCSIYPYPLRVRTGRERTRTDPNSEKPGEVYVPRDENFGHLKSSDFLTYGIKSLSHDVIPLFKSAIFQLRVTSSEFESFEDVRSLYEGGIKLPTDILSQISPLPALKEIFRTDGENVLQFPPPHVAKVSKSGVMTDEEFAREVIAGVNPNVIRRLQEFPPKSTLDPTLYGDQTSTITKEQLEINMGGVTVEEALSTQRLFILDYQDAFIPYLTRINSLPTAKAYATRTILFLKDDGTLKPLAIELSKPHPDGDNLGPESIVVLPATEGVDSTIWLLAKAHVIVNDSGYHQLVSHWLNTHAVMEPFAIATNRHLSVLHPIYKLLYPHYRDTININGLARQSLINADGIIEKSFLPGKYSIEMSSSVYKNWVFTHQALPADLVKRGLAIEDPSAPHGLRLVIEDYPYAVDGLEIWDAIKTWVHEYVSLYYPTDAAVQQDTELQAWWKEAVEKGHGDLKEKPWWPKKQTTEDLIQSCSIIVWTASALHAAVNFGQYPYGGLILNRPTLARRFIPAEGTPEYDEMVKNPQKAYLRTITPKFETLIDLSVIEILSRHASDEIYLGERETPNWTTDKKALEAFKRFGSKLTGIEGKINARNSDPSLRNRTGPVQLPYTLLHRSSEEGLTFKGIPNSISI”, which “soluble on expression in E. coli” value is on record?
**A.** soluble

**Q.** Which “soluble on expression in E. coli” value does the source give for “MSLASLRVLALACLPLFAVLHADAKTLLGKVKRATGMGVGEGPSVAKKPKYTATVPGFTPPSGDQRMNEFMAVDTSGEFMRHLYIEEGRTVCASATSRNRRPTSESPHSDDVVVVEGMLRGRPETRVHAMFDGFQGRHSAMWLAQNVMNYLNDLRDVNEEEITRQFERMDGDLRAANLPGGSSALIIFVRYEKKPTEARVVGRQIVPEGAKEFTSVAEALGGPLMPVVAMNFRRDPRAAKGIYTIHVASLGNSRCVLKSGRTAIHLSTPHTASSHKERHRVQAAGGVFTTVNGELLLGGVVPMTRAFGSFDFKKGGQGKLQQDLVSAVPDVTTFFAYPGDDEGHHHHHH” here?
**A.** not soluble

**Q.** For “MAHHHHHHMKKACKLASECLKLCLENSKEGITTDIIDNMAYDFYIKNNAYPAGLNFHSFPKSICASPNEVVCHGIPNLRKLQRGDIITYDCTVFLDGVFGDCAGTVGIGEISERHKKLMDVSKECLYKAISICRDGQLFSEIGRIITEHANKNGFNVIKDFCGHFIGTHMHMYPLIEHHYPNSHNNHRMKKGQIFTIEPILSEGSINIYTWKDKWTVCTNDNSFCSQWEHTILVLDNYAEILT”, which “soluble on expression in E. coli” value is on record?
**A.** not soluble

**Q.** For “MSLAKLPVGGIWKARLVLNEMQWSPYIKVATFSADITLDVTDKNNGAIYLPAFGSATPRVDLNLRTQPLSTAPGGEVSGQANIDMCLYDGYNSNSPWLKVALSDLQTVAGRPADVFSLRRDGSSGTAAADRVDYRITLNYNNQPQTVNNGQDITLASVNSTLIRPVVMPGIAFPVICTPTPLTLNVLPFAKLSKAAGHFSGTLRVTLSADALAEGHHHHHH”, which “soluble on expression in E. coli” value is on record?
**A.** not soluble

**Q.** With “MAHHHHHHMGTLEAQTQGPGSMSVSAAPSATSIDRYRRITKLGEGTYGEVYKAIDTVTNETVAIKRIRLEHEEEGVPGTAIREVSLLKELQHRNIIELKSVIHHNHRLHLIFEYAENDLKKYMDKNPDVSMRVIKSFLYQLINGVNFCHSRRCLHRDLKPQNLLLSVSDASETPVLKIGDFGLARAFGIPIRQFTHEIITLWYRPPEILLGSRHYSTSVDIWSIACIWAEMLMKTPLFPGDSEIDQLFKIFEVLGLPDDTTWPGVTALPDWKQSFPKFRGKTLKRVLGALLDDEGLDLLTAMLEMDPVKRISAKNALEHPYFSHNDFDP” as the sequence, how does the “soluble on expression in E. coli” value read?
**A.** soluble

**Q.** Which “soluble on expression in E. coli” value does the source give for “MAHHHHHHMEGSSGHLKSTAVAHNDGQALPPAAGAGHAPPTSNAAAGQQKTDQPPIAAVPVMSVAERAAATAEAERALSLLCTIRAVRRQTEELTVLLLHACGEWGCWSVPTAEEGVACETTRTPLPSSPLPGRIRHSQHLFADLFVAAPLAPTAFCTSSSVSLVGVSDGTAKADLLDLSAGEDADPARLSAASVFAKESACRRERACQALRQALQQQQQRWSLSTAAAATATLAAGAAFLEMALAPPQRAVPPPPPMSVQLDLYAVQPCALQRSIQEWRPRAAQTTAAGATKAGGTSPPEEAASLHCSLQQLLHTLGRQGPQLQSSYDVLHAAAGQRHRTNTRSCTDEQRGVPPREATTGVIKAAEARAVVHKTHGTSAAASDAPQEVEVPPLPSSSSPLAVAPDTLRRTPSSLPRQHSSTTPSSSSQALPSSDTLLSSPVQLAVDHTRLWADPPTPLQRADFSCAAAAAPTSTEISERGARIPVHQAGRSVLEDASSHRTKGKPELEAHVEVEVIGGNADGSHAAAGASSSNSTQVTNMRRTSLSSSTFFHSPVAVDARGGVVGALREVYEASWQPCSNARPSTRPEAAHAVAVAEEKLASQHQEERRSRRCDRGGSATAVELEDSVRRHLTRWMSQQPNDRAWVSGGPGLGPASFLLDPIRHAPGSSRAATRATDATAPALGQGAGRDRRGSRRAVHSGVRVDPIREHAREEGAGAGTESPLDAWPRPGARTAGPRGPGCSRSAAEMSELQLCMCVLLA” here?
**A.** soluble

**Q.** With “MAHYKAADSKREQFRRYLEKSGVLDTLTKVLVALYEEPEKPNSALDFLKHHLGAATPENPEIELLRLELAEMKEKYEAIVEENKKLKAKLAQYEPPQEEKRAE” as the sequence, how does the “soluble on expression in E. coli” value read?
**A.** soluble

**Q.** For “NVPELIGAQAHAVNVILDAETAYPNLIFSDDLKSVRLGNKWERLPDGPQRFDSCIIVLGSPSFLSGRRYWEVEVGDKTAWILGACKTSISRKGNMTLSPENGYWVVIMMKENEYQASSVPPTRLLIKEPPKRVGIFVDYRVGSISFYNVTARSHIYTFASCSFSGPLQPIFSPGTRDGGKNTAPLTICPVG”, which “soluble on expression in E. coli” value is on record?
**A.** soluble
